The source of these data is patent publication US20260078148A1.

For the experiment, the target named is CD2. The experiment can be described thus: flow cytometry on primary human T cells at day 5; CD2 detected with the competing clone RPA-2.10. A general note: A flow cytometer gives signals particle by particle.
Chain of CD2 (receptor chain, as listed by the source limits assumed, form in doubt): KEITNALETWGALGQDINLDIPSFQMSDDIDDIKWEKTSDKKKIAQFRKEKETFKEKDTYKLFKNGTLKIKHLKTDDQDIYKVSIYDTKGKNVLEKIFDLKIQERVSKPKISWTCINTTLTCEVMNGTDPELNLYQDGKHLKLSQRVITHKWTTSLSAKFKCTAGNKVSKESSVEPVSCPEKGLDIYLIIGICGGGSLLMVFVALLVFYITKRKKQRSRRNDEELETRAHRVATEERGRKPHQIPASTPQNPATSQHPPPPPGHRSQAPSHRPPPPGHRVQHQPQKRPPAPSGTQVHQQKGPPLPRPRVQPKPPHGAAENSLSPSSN

Substance CD2 RPA naked (antibody) displayed an IC50 (read off the curve) of 0.08 nM.
